Here are results for three molecules from paper PMC10709637, “Phospholipids are imported into mitochondria by VDAC, a dimeric beta barrel scramblase” (Nature Communications, 2023).

For data set [1], the target named is T1, human VDAC2 (Voltage Dependent Anion Channel 2), N-terminal hexahistidine tagged (human), P45880.
T1 chain: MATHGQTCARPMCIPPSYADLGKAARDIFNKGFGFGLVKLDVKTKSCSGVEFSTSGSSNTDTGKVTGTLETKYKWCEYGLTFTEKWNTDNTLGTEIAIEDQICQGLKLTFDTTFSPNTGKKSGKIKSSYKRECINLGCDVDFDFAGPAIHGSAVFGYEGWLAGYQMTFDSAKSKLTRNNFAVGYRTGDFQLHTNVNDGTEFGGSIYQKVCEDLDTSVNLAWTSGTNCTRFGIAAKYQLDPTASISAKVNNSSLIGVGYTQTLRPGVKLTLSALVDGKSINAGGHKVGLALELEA
Briefly: vesicle occupancy statistics (Poisson analysis of the dithionite channel assay); different amounts of protein reconstituted into a fixed quantity of LUVs; fraction of vesicles with a channel against PPR*, one-phase exponential fit; MW 31 kDa, vesicle diameter 150 nm. As to conditions: remark: other sources report otherwise.

The target in data set [2] is T2, C-terminal Twin-Strep-tagged yeast VDAC (Por1-TS) (S. cerevisiae), P04840.
T2 chain: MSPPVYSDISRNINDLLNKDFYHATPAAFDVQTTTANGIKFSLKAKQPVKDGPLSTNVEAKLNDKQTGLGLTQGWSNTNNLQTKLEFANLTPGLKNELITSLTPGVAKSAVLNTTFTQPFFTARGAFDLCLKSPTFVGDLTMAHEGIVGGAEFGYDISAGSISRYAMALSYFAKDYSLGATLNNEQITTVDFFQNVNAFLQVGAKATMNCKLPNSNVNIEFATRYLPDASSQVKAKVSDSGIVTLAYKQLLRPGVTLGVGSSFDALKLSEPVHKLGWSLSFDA
The experiment in a line: cross-linking; EGS cross-linking after reconstitution into LUVs (POPC/POPG) in 10 mM MOPS/KOH pH 7.0, 100 mM KCl; 16x mole excess of EGS, 20 °C, 40 min; SDS-PAGE immunoblot (anti-His for human VDAC, anti-VDAC1/Porin for yeast porin). The following applies: remark: other sources report otherwise.

Data set [3] deals with the molecule itself. Described as above.

B1: human VDAC2 (Voltage Dependent Anion Channel 2), N-terminal hexahistidine tagged, P45880 1-294 (natural protein)
chain: MATHGQTCARPMCIPPSYADLGKAARDIFNKGFGFGLVKLDVKTKSCSGVEFSTSGSSNTDTGKVTGTLETKYKWCEYGLTFTEKWNTDNTLGTEIAIEDQICQGLKLTFDTTFSPNTGKKSGKIKSSYKRECINLGCDVDFDFAGPAIHGSAVFGYEGWLAGYQMTFDSAKSKLTRNNFAVGYRTGDFQLHTNVNDGTEFGGSIYQKVCEDLDTSVNLAWTSGTNCTRFGIAAKYQLDPTASISAKVNNSSLIGVGYTQTLRPGVKLTLSALVDGKSINAGGHKVGLALELEA
As for B1, in data set [1], the stoichiometry N amounted to 10.

B2: C-terminal Twin-Strep-tagged yeast VDAC (Por1-TS), P04840 1-283 (natural protein)
chain: MSPPVYSDISRNINDLLNKDFYHATPAAFDVQTTTANGIKFSLKAKQPVKDGPLSTNVEAKLNDKQTGLGLTQGWSNTNNLQTKLEFANLTPGLKNELITSLTPGVAKSAVLNTTFTQPFFTARGAFDLCLKSPTFVGDLTMAHEGIVGGAEFGYDISAGSISRYAMALSYFAKDYSLGATLNNEQITTVDFFQNVNAFLQVGAKATMNCKLPNSNVNIEFATRYLPDASSQVKAKVSDSGIVTLAYKQLLRPGVTLGVGSSFDALKLSEPVHKLGWSLSFDA
B2 registered a stoichiometry N in data set [2] of 2.

B3: human VDAC1 pentamutant VDAC1-5V (T60V, Y62V, E73V, T83V, S101V), N-terminal hexahistidine tagged (natural protein, UniProt P21796 1-283, looked up)
chain: MAVPPTYADLGKSARDVFTKGYGFGLIKLDLKTKSENGLEFTSSGSANTETTKVTGSLEVKVRWTEYGLTFTVKWNTDNTLGVEITVEDQLARGLKLTFDVSFSPNTGKKNAKIKTGYKREHINLGCDMDFDIAGPSIRGALVLGYEGWLAGYQMNFETAKSRVTQSNFAVGYKTDEFQLHTNVNDGTEFGGSIYQKVNKKLETAVNLAWTAGNSNTRFGIAAKYQIDPDACFSAKVNNSSLIGLGYTQTLKPGIKLTLSALLDGKNVNAGGHKLGLGLEFQA
notes: human VDAC1 with five substitutions to valine; pCold vector
B3: in data set [3], the binding result is reported as “binds”.
